Experimental data from patent publication US20230312721A1 (published 2023).
Numbering of substitutions follows the chain as printed.

B1: L3H5 (antibody, human IgG1, kappa, V domains shown)
VH: QVQLVQSGAEVKKPGASVKVSCKASGYTFTNYDINWVRQATGQGLEWMGWIFPGDGSTQYNEKFQGRVTMTTNTSISTAYMELSSLRSEDTAVYYCARQTTATWFAYWGQGTLVTVSS
VL: EIVMTQSPDFQSVTPKEKVTLTCRASQSISDYLHWYQQKPDQSPKLLIKYASQSISGVPSRFSGSGSGSDFTLTINSLEAEDAGVYYCQNGHSFPLTFGQGTKLEIKR
notes: Humanized IgG1, HEK293; chains tied by the L/H names; also called YB8 L3 + YB8 H5
B2: L4H2 (antibody, human IgG1, kappa, V domains shown)
VH: B1 VH with V5Q, M48I, Q65K, V68A, M70L, T72R
VL: B1 VL with V58I, S69T, L78V
notes: Humanized IgG1, HEK293; chains tied by the L/H names; also called YB8 L4 + YB8 H2
B3: L4H5 (antibody, human IgG1, kappa, V domains shown)
VH: B1 VH
VL: B1 VL with V58I, S69T, L78V
notes: Humanized IgG1, HEK293; chains tied by the L/H names; also called YB8 L4 + YB8 H5
B4: L3H6 (antibody, human IgG1, kappa, V domains shown)
VH: B1 VH with V5Q, V20L, M48I, N61A, E62Q, V68A, M70L, Y95F
VL: B1 VL
notes: Humanized IgG1, HEK293; chains tied by the L/H names; also called YB8 L3 + YB8 H6
B5: L4H1 (antibody, human IgG1, kappa, V domains shown)
VH: B1 VH with M48I, M70L
VL: B1 VL with V58I, S69T, L78V
notes: Humanized IgG1, HEK293; chains tied by the L/H names; also called YB8 L4 + YB8 H1
B6: L4H6 (antibody, human IgG1, kappa, V domains shown)
VH: B1 VH with V5Q, V20L, M48I, N61A, E62Q, V68A, M70L, Y95F
VL: B1 VL with V58I, S69T, L78V
notes: Humanized IgG1, HEK293; chains tied by the L/H names; also called YB8 L4 + YB8 H6
B7: L4H4 (antibody, human IgG1, kappa, V domains shown)
VH: B1 VH with M48I, Y95F
VL: B1 VL with V58I, S69T, L78V
notes: Humanized IgG1, HEK293; chains tied by the L/H names; also called YB8 L4 + YB8 H4
B8: L4H3 (antibody, human IgG1, kappa, V domains shown)
VH: B1 VH with Q65K, M70L, T72R, Y95F
VL: B1 VL with V58I, S69T, L78V
notes: Humanized IgG1, HEK293; chains tied by the L/H names; also called YB8 L4 + YB8 H3

target: T1, 4Ig human B7-H3 (human, UniProt Q5ZPR3 29-466, limits assumed); experiment: SPR, Carterra LSA; antibody captured on anti-human Fc lawn, 4Ig human B7-H3 as analyte
T1 construct: Soluble analyte in SPR; also called 4Ig-B7H3; 4Ig B7H3
T1 sequence: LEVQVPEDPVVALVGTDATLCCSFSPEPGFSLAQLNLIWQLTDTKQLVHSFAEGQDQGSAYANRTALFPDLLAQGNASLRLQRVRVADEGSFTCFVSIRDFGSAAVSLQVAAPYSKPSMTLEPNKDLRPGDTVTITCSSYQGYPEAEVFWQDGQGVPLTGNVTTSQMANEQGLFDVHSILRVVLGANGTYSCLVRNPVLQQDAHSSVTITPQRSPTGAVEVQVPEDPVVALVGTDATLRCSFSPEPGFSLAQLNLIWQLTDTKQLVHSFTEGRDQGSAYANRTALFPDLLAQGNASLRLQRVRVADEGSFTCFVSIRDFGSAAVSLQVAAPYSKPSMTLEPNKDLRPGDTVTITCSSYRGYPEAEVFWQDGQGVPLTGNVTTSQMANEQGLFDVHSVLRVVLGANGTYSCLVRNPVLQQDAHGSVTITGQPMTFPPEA
Protocol: Chimeric and humanized antibodies were generated using CDR grafting methods using closely homologous human germline sequences. Six different humanized VH and four humanized VL sequences were combined to generate 24 different humanized IgG1 antibodies. The antibodies were expressed in HEK293 cells and purified using Protein A resin. Antibodies were buffer exchanged into PBS and quantified by OD280 and titer was calculated. Sample purity and aggregation status was determined by analytical Size Exclusion Chromatography (SEC-HPLC), which separates molecules based on molecular mass and hydrodynamic volume. Area % of each peak is calculated based on total area of the peaks. Peak symmetry is calculated to determine the peak fronting (<1) or tailing (>1). A column of 300A pore size was used for detection at 280 nm and PBS as the running buffer. Surface plasmon resonance studies to assess binding affinities were carried out on a Carterra LSA instrument. An anti-human Fc antibody “lawn” was prepared on a HC30M chip by amine coupling. The chip was activated with equal volume of 100 mM MES pH 5.5, 100 mM S-NHS and 400 mM EDC. The anti-human IgG Fc antibody was immobilized. The chip was deactivated with 1 M ethanolamine pH 8.5. Antibodies were diluted and printed onto the anti-human Fc lawn. An 8-point series of 4Ig human B7-H3 was prepared.
The characterization data, including expression titers (mg of purified protein per L of culture), purity (% monomer peak by analytical SEC-HPLC) and affinity measurement by SPR (ka, kd and KD) are summarized in Table 1 and FIG. 1-4.

Q: With B1 as the binder, how does the Kd read?
A: 9.2 nM

Q: And the koff?
A: 0.00035 s⁻¹

Q: What about the kon of the same binder?
A: 38000 M⁻¹ s⁻¹

Q: Which results are given for B2?
A: Kd: 11 nM; koff: 0.00039 s⁻¹; kon: 36000 M⁻¹ s⁻¹

Q: Which Kd does the source give for B3 here?
A: 9.3 nM

Q: And the koff?
A: 0.0004 s⁻¹

Q: And the kon?
A: 43000 M⁻¹ s⁻¹

Q: How did the Kd turn out when B4 was run?
A: 20 nM

Q: And the koff?
A: 0.0005 s⁻¹

Q: What about the kon of the same binder?
A: 25000 M⁻¹ s⁻¹

Q: Which results are given for B5?
A: Kd: 23 nM; koff: 0.00055 s⁻¹; kon: 24000 M⁻¹ s⁻¹

Q: With B6 as the binder, how does the Kd read?
A: 9.6 nM

Q: And the koff?
A: 0.00042 s⁻¹

Q: And the kon?
A: 43000 M⁻¹ s⁻¹

Q: Which Kd does the source give for B7 here?
A: 11 nM

Q: And the koff?
A: 0.00036 s⁻¹

Q: And the kon?
A: 34000 M⁻¹ s⁻¹

Q: Which Kd does the source give for B8 here?
A: 13 nM

Q: And the koff?
A: 0.00039 s⁻¹

Q: And the kon?
A: 31000 M⁻¹ s⁻¹
